The nature of the data set: soluble on expression in E. coli; label from the status in PepcDB or PDB records.
Regarding “MAHHHHHHMSLLKADQLRRDLFIKYSDKIAELLGETEECSPTEEQREKEEIETTEQRGLSSLPKRFRISYPRQHLLRQRAMQMPPAADVGDAENSPASASNSTCPPLGETATDEDENVETIWVELDEEEKRPVYNEPYPSVKRMMRRMQDESLRLLMREARIPVTPHQGDAYLLQRMEVLQQLEKNIGDDRIKILARLQKMDGKLHTCE”, the “soluble on expression in E. coli” value is listed as “soluble”.
For “MAHHHHHHMSPVLVPTACEDWSLNIDDESAKRFWWNNTYSITLWEETLNIEQQAEKITDGDVWSKFIDLQLRCAFKICSICHSPEGNADMKICCYCGNTVHENCSEPAAPEQIMWKPANLAYVEHMRACFQCQAVNYKEPLAPQSPSEWDNARRAAKRALTISDEYPPATVERIQKLLQRAETTSNDAVLLSELKSLVQSYFQSPQSLQFLRKERVASKGGGIGVVAARKIPAFSIIGVYPGYLDFMSGEQAKCGRPVPKYALMEYNCANYFNEVFVELQTTFTPFINEPNVDEKSNCAWIQEPHRKNGRLSVICVRDIQEGEELTIGYGPIYPRTYPYCYDAYACHQIEGHTTHPCYSLWHWPTLQEADARFVCHIGYIERDDCYVLWKNET” the value was “soluble”.
As to “MAHHHHHHMSRCNVAACFFPQQYGCETECGSESLLRAVLGDNANRVDSVMNHCTPHCVAAAIARCIREGPNFPHHLHVIAGVGRFKEIMIACLIDMIPQPLFSIDVPLQCMMFASEEGSVVCKLFDSESMPSLLSTANDMEQIFLVSLRHERRMVTIVAVEQLSTSLVASMLGSVCSNIWVLLSGLHTTEREMSLLNEAMAIRDAVREFSSAVGAVSTELHVEEESSAHATPPVAVEVVHPSAPSLKGVEDNDTAVVVSSAEAETVSDTQSVARRLEESQCEVNQLRKKLEEAEDTIHRFRAAERRAEEEKKNLSLAESLAATTPVATSERAESLFCEGTGGLDSQNSKGNENWVGERTVVATQRELSAMQAKLSELQRCLVETSEGNLGRVREFQCRELEWQRELRRRTEERDVALQECERLRGATPCHGSQEKVFSRAVETPHAHQEQELDNLLSRIRSITAAHGNAAHSEFPMLFSSQRSAGGAGQPLSPRGDYRRFASLERYRS”, the “soluble on expression in E. coli” value is “not soluble”.
For “MAHHHHHHMSRVSVLAGQKPKPKESFKFLRRDEGRLSYSAATAESPSKNAANGADGANINRERRDSKALREAIAYDMRNAKSHDPLGEVVVAVPRKAPPPTRAVSAPPPNTNASSGTEKPAAGAPPQRRQPARAANPKKPEWVDPEIPPSPLLQAPTHTVVERPADNYFETSYSDSHSGGAAALSSGIGRSVSRGSDTNGADLGRYGGLTPRSAAMGAPRYASLKYEESSAAPLSGQDRNYFRRPLYTRDPALGSDAHSPAGSRVREEDELIASLEQEIKAAQKERNHYADARQQLDREKQRFESYRYGARQQMEDERADAGDRRSREQRDAQKDLRATEERFKNVSALLVAERETNRRLSQENDSLRTQLEDLTSTMREAHRIHKAEVARMRRDIDSLTRRNAELLAMAKEQQLQCLEGASASPSTRQSSSSPFSVSLDPSAQRASSASCEGGYDEDNDAAAVGERRASRAAPLAVMDFTPRASSREAAAREKRNRQMQNRMQAEEQAMEERKRHREQYIAGRKREEQEEKTRHRVAVDAAAAATACRRSEEDDLRKAATAAEKVVEERKMSGHPARTPRMQSGALSVKRRPSVSAVHAPVAPKRHHVPTREDLIGDMEEFPTEKFCDDDVVSQTALGDNSNKKEVLYRSGKREIHYANGTVKVVLPSGHTTLRFTNGDVKCTFPSGKSTYWYDAAQTMHTQMPDGVQAFEFRSTGQTEKHLPDGSKEILYPDGIYKMVRPDGSDETFYPDGEPMEE” the value was “soluble”; for “MAHHHHHHMSSLDSVREDILDVFHIFDEDGSGSITMQELKRAIYTITGIRISRIDLSILVRTCKEEMLKESARKSEAGANVAGKAGEKLWTPEPESEVNTVDPQLFAAVVLKTLNRRTQEQELLFTFRLLEDKDYPGFITKDSLKRASADIDEHLTDQEVNEMFDKLVTGVSAAAIDFVTFSSLMETLRKSI”, “soluble”; for “MAHHHHHHMSSLKYIENSINSNIRVDGRTLSTYRTIEINKNILVSADGSSSVMNEENNVICGIKLSLLTPSLDAPDEGVINLQIDCPASVVANRIKKDHLQIMSSIIYDLCLKNNIDRKKMCILPSTFVWGVDINVMVLNAGGGLLDIISMAIYVALKDTVVPVVKPKKKIDESNTFHHTKCADYQVEIVENQKTNFPYENVPICVSIGEINNKYVYDMSKVEEELVENIFVVAVTSSGKCVAFHKLYGISMEIASILNMTENSSRISHHLFEKINEAIAKIETRSVLV”, “not soluble”.
As for “MAHHHHHHMSSQAQQRAPAYAPRDTHAERLAAADREAAARRDSSTNWTWYPEYHLAPYMGWMNDPTGLVHFRDHYHVFYQYHPYSAEWGPMHWGHMTSEDLVHWQHEKVALAPGDACDRNGCFSGTAVVHEDRMYVFYTGHFALDAATPSNPDAIFEQQCVAVSSDGVNFEKLGAVVRPPPGYVHFRDPKVWQQDGRWWMVCGARDVTKDLGQLLLFTTEDLLKWDDTNWQVLGMTEDKNVFMWECPDYFTIGSREDMKLLLFCPQGKKASEYNYRNRFQNGYTVGQWMPGGPWTVQREFRELDRGHDFYAAQTFLAADGQRRMLMAWCNMWESPMPTKQYGWSGCLTLPRELSYNEATGQLCMLPARELVGLRTPEMMIVPSLLVENNSDAQILENCTAYELDIAFNMETSTAEKYGLWLGSGAELYVDAQSKRLVLNRHYPQHMLSGYRSCELPIGLLLQLHVFIDRSSIEVFVNNGEATFSSRVFPDEGDRALRVFSVNGTADMVGGTMWKLKATVRH”, the “soluble on expression in E. coli” value is reported as “not soluble”.
For “MAHHHHHHMSTDIPVNDNETNSSFKLKSEINSIENELKNWFLKRRLNMEINYSLKKLFDSYNFVGLSINNNINLKDKMLWYDIVNGKPELEDTLSMDAKEYKADQYSYLWNKSTTIDNACRLVGSIYFRCLKNNFQLKKSEREHKCIQNFINFNNCRNALKLQQANNIKDSLIKQNMEDNIAKALFERRSLLLDMLEDFK” the value was “not soluble”; for “MAHHHHHHMSTSYSVTTYMTTTYVNCEDVSGSDSEYSEYDLVNEQMQDFLLDSEDTSDGDADVEDILGFGAVFMGGLMPTRSMDAHQACAWRRTTKPNRRRIAKKSESCSSLSNAARLTASSSTTMLSDLDTVVREAVVTGGAAQRRGTRKQRRAMASGERRWLVPPLSAVSVESTDGGNDGRRQLPWFTVVFDLDETLVGARYGPIHLRPHVGELLRSLHRLPVEIIVWTAGTAHYVNPILHAIGQACGRRQWFHHIISRHKRWYRDTNVSVKDLRQLGRPLDRLVMVENNPISALPQPSLCVLLEDYLQPNAADESLLVLKGLLERLALQYERAARTSSATGTCEQASEEECPAQRHTRSPRNTLRDATATRTTALPSLELLVRDDAALQLVEFRMEDILKEDGVPMLQQAEMRELVGGADTLRCLCLCYTPPLLPSSTAVAPQGTAALMSCVSMAMRSYGSVNPLRPL”, “not soluble”; for “MAHHHHHHMSTYDKSDQIGYDETDHTLNAELEEMMARTPPEVQRHLQHRIHDGILQRMKEETTRKCITFIQKYEQCVNSQKPYNMKLCYPHRDAMNGCAQEVNREENYQRYRIMYLRGELLKYHEKRTAGKMEAFKVRAPDAIRAWKHDYAPKYMHIMEDLGVAPLGTAAGTAEESTNSK”, “not soluble”.
On to “MAHHHHHHMSVAPKRTAELLWLEQQRARQYEQHRKRVEQQKPCVDNKTPRNLSLSNKRALMEQERRKCIDEENRRLVVNMSAIMERGGGIDNKEPWRRTNGPRDAEIRRRREQQKLAEENLKLLHRLENVKPVYRLEKWEMERDENEILVDRISRYPYIPMNRRKGVGE”, for which the “soluble on expression in E. coli” value is recorded as “soluble”.
For the sequence “MAHHHHHHMSVTASAAAAAAAAAASPRPPSSALYTERLFYAVLKQGNPSEARVEALAALALRHLPKSAETWAALRKALMEQSDLDGAPNRTLWYVLDALIKHAPHVFVPLVAPRLLEYTIQQLPWELAGHRGQTLLWFEALVLSWEKVLPQRLYSAVRQHAVQSRSGAELHDLLEAAENSVDDGTSASPADLQQLRDAWDAVQYMGEQEAGKSVFHARLIAAAVVVADEDGNSSLSPSPPVSGLYATPTGHNGRTAGAGTSGADIANTQQQQQQQEEDEYTPDFIEGAKPRELPKLDLPKLKRRREGRRRPREEDLGM”, the “soluble on expression in E. coli” value is on record as “soluble”.
For the sequence “MAHHHHHHMTESRWITEALVQFSASPIWLTPIDNFVDDNCCIFSNESEMQLEYTVAHNKFKKLIDSLLTCFLMELGVSMETAVEALQSSLAVSVQTSEGLSEQQAAKKLLKQIFNADNFSHFHTMMVKRNLELDILANAALSSDGVCGNGGAALSTEEVEKETRARARVQRAIDVNGDVSEDDALRRAIEVSLQDGTAQQQVQAYRKACIQEDANLQLTAVEHQANSEKAQLEAVLQTQSAQNLPEGEHFRQNHVEPINKQKESQLQPIRAHAMSGKGQKGCDEAEPQKANFNSPESPCPLPALQVPAAASAPVAAPVSVPALPSIGQRQAALPSIPSTITASVLKSAPSAPAHQAHGTAVSATPAPTPIPTKEELEKRAQYMREQREKLLARNRASRQEQLNTFLQNNSSSTTTSSSAALAATGAAQSVTVEIARRLRGDLIGEARKSSG”, the “soluble on expression in E. coli” value is on record as “soluble”.
Then “MAHHHHHHMTNFETFQQFYVRDWTPKARPVDAAASVVAPCDGQVLAVNANVESTSLVQVKGLTYGMRSLLQDTPPPLNTDTHRRVAVVLHMRNKDFHHVIAPLSFACEKSIYVPGSLLPTTSAGYHWIPAVLALNERLILQGRSSDKARLPVYMALVGSTLTGRITLYMDKRVRTNYLDPPAYAVHSPYASKPVVARGERLATFNWGSSVVLVMDVPKSCKPLKRPGDVVKAGEALFQF”, with “not soluble”.
Consider “MAHHHHHHMTNKSYPTSLVTTPKVRRKSSEHGTFHNSSPKKKNRDIRDFFTANKCNESVEKSWNNNINKRSYHDSPMNDSPNTTLKFLSKKYKTEIN”, for which the “soluble on expression in E. coli” value is recorded as “soluble”.
For “MAHHHHHHMTPTSAITTSAPATATTAEQTPLPPEQTSMFDAPGTPTPAVSAASARATGAQDSSTLMEGAKTETTKQNLAMKGLDRWMKMQLPADWMECIRQNLQLDKHGQPMHAVTEMKDAIPLLITPLTGDVKFFPYFVCSMDVAVRYHYVIQNERDPDTTAVIDDLQRRFGNSGRLLVVRNRYNRGYSGSMNQAFEWALKERTAEEVPWVFACGVDAIFEPGLLAKMIEVVQQNTRGDAAMLAALRAEVELEERLVREGNYSYYERWAPRGRPLKVLRSGYPGVPLNVRTAPLLPDRIRYTVADENRESGIVRPAELRTRFFGNYVATVTPVPDALGTIAVTRLALSAVGYFDENYFPAYMDDIDLRWRHFAYGFGALHGERNGPVTRWHHYNAANLRGSPFVDPDLEKYGTEDNYSRRAFLSYIRRSKGIYDKLKYGPRDMDGVWRQAAQKAEFKYSSFNVSHYPADTWVLDEDARGCMFHHTYNYKTQNWSRPSDCSYNPRTLEESGILGVDQLASYRSMLAEKAFAYQ” the value was “not soluble”; for “MAHHHHHHMTSGYSSYAGASGSGHERFTRILVVGEASVGKTLLIRRLCDHIFGDTSITSTDEGSAPESPYQSQSAVADDDLGPEWGPTVGIAVDALKRSTTVLEDTVTMPNLAMSTPYDTAAVARYTAPSCSLHSGENGNYPHCSVYDTPCSTSGYGRSNSVLQYRGQGFVGSNTSFALLHQLTSASPPRRQTVLQTVEFHELGGTHGYRDVARLLLRNIHYDGVMFVYHRRSLTSTLYLKEWYRWIRSVFSASPDVGSHYGAEAKKPVKCSKKMPRFMLVGTQLPGDELPAAAAGLTKAAAETLHMASGAISDETLLDGNLEVKLRALQSPQTLTQRRGVRHALSKVFRRLAWPYHMWWCVSHPFFLLSKQYQEELGPRSRLGACGSRVVERFVWLFYQAEQALLYVMAVILFGPYQEAVVLGHSRPKQTLEEMLKDELCVSQAHVCRLESNISLQSSLDDMVAFFDILLRQDAPDEGR”, “not soluble”.

The values are drawn from the DeepSol protein solubility set.
